The values that follow are results of earlier work, collected in PMC5302535.

The target in the data set is transferrin receptor (TfR) (Homo sapiens) (UniProt P02786).
transferrin receptor (TfR) (Homo sapiens), sequence (P02786 89-760): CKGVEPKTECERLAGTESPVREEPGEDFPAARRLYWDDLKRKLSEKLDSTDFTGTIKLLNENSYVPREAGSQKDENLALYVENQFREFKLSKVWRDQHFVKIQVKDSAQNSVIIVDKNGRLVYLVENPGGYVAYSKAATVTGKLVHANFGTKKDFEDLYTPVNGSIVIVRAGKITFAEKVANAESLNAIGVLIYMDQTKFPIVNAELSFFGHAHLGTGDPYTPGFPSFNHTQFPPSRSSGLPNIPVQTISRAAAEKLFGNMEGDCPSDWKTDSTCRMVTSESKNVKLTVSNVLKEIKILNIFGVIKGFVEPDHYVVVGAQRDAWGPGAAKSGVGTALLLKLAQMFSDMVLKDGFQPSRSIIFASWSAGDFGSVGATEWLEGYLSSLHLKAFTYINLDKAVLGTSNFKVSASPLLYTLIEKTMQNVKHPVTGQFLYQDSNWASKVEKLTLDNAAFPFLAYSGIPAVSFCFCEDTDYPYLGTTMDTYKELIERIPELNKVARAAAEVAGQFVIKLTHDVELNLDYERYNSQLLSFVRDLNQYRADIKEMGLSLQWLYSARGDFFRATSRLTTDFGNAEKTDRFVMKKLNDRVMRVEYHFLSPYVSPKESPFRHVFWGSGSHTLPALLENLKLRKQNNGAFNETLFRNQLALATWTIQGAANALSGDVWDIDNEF

Consider T7 peptide, for which the Kd is 10 nM.

A word on the Kd: it is a measure of binding affinity in units of concentration.
